{
  "source": "the supplement of paper PMC11316812",
  "key": {"hTERT-HMEC": {"system": "hTERT-HMEC", "assay": "percentage of EdU-negative (G0-arrested) nuclei per well, 72 h; higher = more G0 arrest", "details": "reference: sequence is the full UniProt precursor, the tested protein was the secreted form or ectodomain"}, "MCF7": {"system": "MCF7", "assay": "percentage of EdU-negative (G0-arrested) nuclei per well, 72 h; higher = more G0 arrest", "details": "reference: sequence is the full UniProt precursor, the tested protein was the secreted form or ectodomain"}, "[1]": {"details": "protein concentration 0.03125 µM"}, "[2]": {"details": "protein concentration 0.3125 µM"}, "[3]": {"details": "protein concentration 0.0225 µM"}, "[4]": {"details": "protein concentration 0.0197143 µM"}, "[5]": {"details": "protein concentration 0.197143 µM"}, "[6]": {"details": "protein concentration 0.01655 µM"}, "[7]": {"details": "protein concentration 0.1655 µM"}},
  "note": "± gives the standard deviation of the averaged measurements.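 Note: secreted proteins added to cultured cells, EdU pulse at the end, nuclei found by Hoechst imaging, EdU status from nuclear versus surrounding ring intensity ratio, PBS as neutral control.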",
  "data": [
    {"sequence": "MKFTIVFAGLLGVFLAPALANYNINVNDDNNNAGSGQQSVSVNNEHNVANVDNNNGWDSWNSIWDYGNGFAATRLFQKKTCIVHKMNKEVMPSIQSLDALVKEKKLQGKGPGGPPPKGLMYSVNPNKVDDLSKFGKNIANMCRGIPTYMAEEMQEASLFFYSGTCYTTSVLWIVDISFCGDTVEN [Q9NS71]", "values": [
      {"measurement": "percentage of EdU-negative", "setting": "hTERT-HMEC; [1]", "value": "4.8 ± 0.55", "unit": "%"},
      {"measurement": "percentage of EdU-negative", "setting": "hTERT-HMEC; [2]", "value": "5.56 ± 0.6", "unit": "%"},
      {"measurement": "percentage of EdU-negative", "setting": "MCF7; [1]", "value": "23 ± 2.2", "unit": "%"},
      {"measurement": "percentage of EdU-negative", "setting": "MCF7; [2]", "value": "25.4 ± 3.5", "unit": "%"}
    ]},
    {"sequence": "MGLWGQSVPTASSARAGRYPGARTASGTRPWLLDPKILKFVVFIVAVLLPVRVDSATIPRQDEVPQQTVAPQQQRRSLKEEECPAGSHRSEYTGACNPCTEGVDYTIASNNLPSCLLCTVCKSGQTNKSSCTTTRDTVCQCEKGSFQDKNSPEMCRTCRTGCPRGMVKVSNCTPRSDIKCKNESAASSTGKTPAAEETVTTILGMLASPYHYLIIIVVLVIILAVVVVGFSCRKKFISYLKGICSGGGGGPERVHRVLFRRRSCPSRVPGAEDNARNETLSNRYLQPTQVSEQEIQGQELAELTGVTVELPEEPQRLLEQAEAEGCQRRRLLVPVNDADSADISTLLDASATLEEGHAKETIQDQLVGSEKLFYEEDEAGSATSCL [Q9UBN6]", "values": [
      {"measurement": "percentage of EdU-negative", "setting": "hTERT-HMEC; [3]", "value": "4.16 ± 0.28", "unit": "%"},
      {"measurement": "percentage of EdU-negative", "setting": "hTERT-HMEC; protein concentration 0.225 µM", "value": "4.86 ± 0.69", "unit": "%"},
      {"measurement": "percentage of EdU-negative", "setting": "MCF7; [3]", "value": "24 ± 0.81", "unit": "%"},
      {"measurement": "percentage of EdU-negative", "setting": "MCF7; protein concentration 0.225 µM", "value": "24.3 ± 2", "unit": "%"}
    ]},
    {"sequence": "MKFSPAHYLLPLLPALVLSTRQDYEELEKQLKEVFKERSTILRQLTKTSRELDGIKVNLQSLKNDEQSAKTDVQKLLELGQKQREEMKSLQEALQNQLKETSEKAEKHQATINFLKTEVERKSKMIRDLQNENKSLKNKLLSGNKLCGIHAEESKKIQAQLKELRYGKKDLLFKAQQLTDLEQKLAVAKNELEKAALDRESQMKAMKETVQLCLTSVFRDQPPPPLSLITSNPTRMLLPPRNIASKLPDAAAKSKPQQSASGNNESSQVESTKEGNPSTTACDSQDEGRPCSMKHKESPPSNATAETEPIPQKLQMPPCSECEVKKAPEKPLTSFEGMAAREEKIL [Q86TE4]", "values": [
      {"measurement": "percentage of EdU-negative", "setting": "hTERT-HMEC; [3]", "value": "5.34 ± 0.34", "unit": "%"},
      {"measurement": "percentage of EdU-negative", "setting": "hTERT-HMEC; protein concentration 0.225 µM", "value": "8.84 ± 1.3", "unit": "%"},
      {"measurement": "percentage of EdU-negative", "setting": "MCF7; [3]", "value": "26 ± 0.38", "unit": "%"},
      {"measurement": "percentage of EdU-negative", "setting": "MCF7; protein concentration 0.225 µM", "value": "30.1 ± 1.1", "unit": "%"}
    ]},
    {"sequence": "MHPHRDPRGLWLLLPSLSLLLFEVARAGRAVVSCPAACLCASNILSCSKQQLPNVPHSLPSYTALLDLSHNNLSRLRAEWTPTRLTQLHSLLLSHNHLNFISSEAFSPVPNLRYLDLSSNQLRTLDEFLFSDLQVLEVLLLYNNHIMAVDRCAFDDMAQLQKLYLSQNQISRFPLELVKEGAKLPKLTLLDLSSNKLKNLPLPDLQKLPAWIKNGLYLHNNPLNCDCELYQLFSHWQYRQLSSVMDFQEDLYCMNSKKLHNVFNLSFLNCGEYKERAWEAHLGDTLIIKCDTKQQGMTKVWVTPSNERVLDEVTNGTVSVSKDGSLLFQQVQVEDGGVYTCYAMGETFNETLSVELKVHNFTLHGHHDTLNTAYTTLVGCILSVVLVLIYLYLTPCRCWCRGVEKPSSHQGDSLSSSMLSTTPNHDPMAGGDKDDGFDRRVAFLEPAGPGQGQNGKLKPGNTLPVPEATGKGQRRMSDPESVSSVFSDTPIVV [Q86WK6]", "values": [
      {"measurement": "percentage of EdU-negative", "setting": "hTERT-HMEC; [4]", "value": "6.07 ± 0.64", "unit": "%"},
      {"measurement": "percentage of EdU-negative", "setting": "hTERT-HMEC; [5]", "value": "17.3 ± 0.43", "unit": "%"},
      {"measurement": "percentage of EdU-negative", "setting": "MCF7; [4]", "value": "21.9 ± 0.6", "unit": "%"},
      {"measurement": "percentage of EdU-negative", "setting": "MCF7; [5]", "value": "29.5 ± 1.3", "unit": "%"}
    ]},
    {"sequence": "MPGSPRPAPSWVLLLRLLALLRPPGLGEACSCAPAHPQQHICHSALVIRAKISSEKVVPASADPADTEKMLRYEIKQIKMFKGFEKVKDVQYIYTPFDSSLCGVKLEANSQKQYLLTGQVLSDGKVFIHLCNYIEPWEDLSLVQRESLNHHYHLNCGCQITTCYTVPCTISAPNECLWTDWLLERKLYGYQAQHYVCMKHVDGTCSWYRGHLPLRKEFVDIVQP", "values": [
      {"measurement": "percentage of EdU-negative", "setting": "hTERT-HMEC; [6]", "value": "5.41 ± 0.19", "unit": "%"},
      {"measurement": "percentage of EdU-negative", "setting": "hTERT-HMEC; [7]", "value": "6.76 ± 0.1", "unit": "%"},
      {"measurement": "percentage of EdU-negative", "setting": "MCF7; [6]", "value": "26.2 ± 1.7", "unit": "%"},
      {"measurement": "percentage of EdU-negative", "setting": "MCF7; [7]", "value": "27.1 ± 0.65", "unit": "%"}
    ]},
    {"sequence": "MFIKVMFGAGCSVLVNTSCRLVNLTAHLRQKAGLPPDATIALLAEDGNLVSLEEDLKEGASRAQTMGNSLLKERAIYVLVRIIKGEDMASTRYESLLENLDDHYPELAEELRRLSGLSSVGHNWRKRMGTRRGRHEQSPTSRPRKGPD [Q8WYQ4]", "values": [
      {"measurement": "percentage of EdU-negative", "setting": "hTERT-HMEC; [1]", "value": "5.45 ± 0.84", "unit": "%"},
      {"measurement": "percentage of EdU-negative", "setting": "hTERT-HMEC; [2]", "value": "5.68 ± 0.37", "unit": "%"},
      {"measurement": "percentage of EdU-negative", "setting": "MCF7; [1]", "value": "28 ± 1.6", "unit": "%"},
      {"measurement": "percentage of EdU-negative", "setting": "MCF7; [2]", "value": "25.79 ± 0.035", "unit": "%"}
    ]},
    {"sequence": "MWWRVLSLLAWFPLQEASLTNHTETITVEEGQTLTLKCVTSLRKNSSLQWLTPSGFTIFLNEYPALKNSKYQLLHHSANQLSITVPNVTLQDEGVYKCLHYSDSVSTKEVKVIVLATPFKPILEASVIRKQNGEEHVVLMCSTMRSKPPPQITWLLGNSMEVSGGTLHEFETDGKKCNTTSTLIIHTYGKNSTVDCIIRHRGLQGRKLVAPFRFEDLVTDEETASDALERNSLSSQDPQQPTSTVSVTEDSSTSEIDKEEKEQTTQDPDLTTEANPQYLGLARKKSGILLLTLVSFLIFILFIIVQLFIMKLRKAHVIWKKENEVSEHTLESYRSRSNNEETSSEEKNGQSSHPMRCMNYITKLYSEAKTKRKENVQHSKLEEKHIQVPESIV", "values": [
      {"measurement": "percentage of EdU-negative", "setting": "hTERT-HMEC; [3]", "value": "4.57 ± 0.2", "unit": "%"},
      {"measurement": "percentage of EdU-negative", "setting": "hTERT-HMEC; protein concentration 0.225 µM", "value": "4.66 ± 0.87", "unit": "%"},
      {"measurement": "percentage of EdU-negative", "setting": "MCF7; [3]", "value": "25.3 ± 1.9", "unit": "%"},
      {"measurement": "percentage of EdU-negative", "setting": "MCF7; protein concentration 0.225 µM", "value": "25.7 ± 2.4", "unit": "%"}
    ]}
  ]
}
